# In PMC10724065, “Evolution of a plant growth-regulatory protein interaction specificity” (Nature Plants, 2023):
# Residue numbers refer to the chain shown, from its start. Names may count otherwise.
# T1: His-tagged GAI (Arabidopsis thaliana, UniProt Q9LQT8 1-533)
# T1 construct: GAI of A. thaliana; also called His-GAI; His-tagged AtGAI; source: E. coli BL21, purified (Ni-NTA agarose)
# T1 sequence (looked up): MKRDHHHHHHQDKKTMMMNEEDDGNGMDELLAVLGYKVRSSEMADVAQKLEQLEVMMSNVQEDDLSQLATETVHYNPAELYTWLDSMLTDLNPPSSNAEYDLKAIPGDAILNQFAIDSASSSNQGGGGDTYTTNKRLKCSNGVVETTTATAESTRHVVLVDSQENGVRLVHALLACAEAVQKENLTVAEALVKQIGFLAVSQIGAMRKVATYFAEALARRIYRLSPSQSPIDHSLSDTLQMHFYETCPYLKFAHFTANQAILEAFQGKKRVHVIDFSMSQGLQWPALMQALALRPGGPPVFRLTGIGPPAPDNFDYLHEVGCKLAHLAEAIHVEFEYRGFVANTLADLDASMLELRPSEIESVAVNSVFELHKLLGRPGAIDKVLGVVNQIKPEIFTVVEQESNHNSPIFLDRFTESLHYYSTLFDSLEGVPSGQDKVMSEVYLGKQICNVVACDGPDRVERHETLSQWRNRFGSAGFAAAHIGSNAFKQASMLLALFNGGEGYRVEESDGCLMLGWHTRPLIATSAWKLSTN
# B1: GST-GID1C (receptor, Arabidopsis thaliana, UniProt Q940G6 1-344, looked up)
# chain: MAGSEEVNLIESKTVVPLNTWVLISNFKLAYNLLRRPDGTFNRHLAEFLDRKVPANANPVNGVFSFDVIIDRQTNLLSRVYRPADAGTSPSITDLQNPVDGEIVPVIVFFHGGSFAHSSANSAIYDTLCRRLVGLCGAVVVSVNYRRAPENRYPCAYDDGWAVLKWVNSSSWLRSKKDSKVRIFLAGDSSGGNIVHNVAVRAVESRIDVLGNILLNPMFGGTERTESEKRLDGKYFVTVRDRDWYWRAFLPEGEDREHPACSPFGPRSKSLEGLSFPKSLVVVAGLDLIQDWQLKYAEGLKKAGQEVKLLYLEQATIGFYLLPNNNHFHTVMDEIAAFVNAECQ
# notes: GID1C, gibberellin receptor of A. thaliana; Used together with 0.1 mM GA3; also called GST-AtGID1C; source: E. coli BL21, purified (glutathione beads)
# B2: MBP-tagged AtSLY1 (natural protein, Arabidopsis thaliana, UniProt Q9STX3 1-151, looked up)
# chain: MKRSTTDSDLAGDAHNETNKKMKSTEEEEIGFSNLDENLVYEVLKHVDAKTLAMSSCVSKIWHKTAQDERLWELICTRHWTNIGCGQNQLRSVVLALGGFRRLHSLYLWPLSKPNPRARFGKDELKLTLSLLSIRYYEKMSFTKRPLPESK
# notes: AtSLY1 of A. thaliana; also called MBP-SLY1; source: E. coli BL21, purified (amylose resin)
# B3: MBP-tagged Atsly1^H104Y (natural protein, Arabidopsis thaliana, UniProt Q9STX3 1-151, looked up)
# chain: B2 chain with H104Y
# notes: AtSLY1 of A. thaliana with H104Y; cloned into pMAL-c2X; source: E. coli BL21, purified (amylose resin)
# B4: MBP-sly1^gar2-1 (E138K) (natural protein, Arabidopsis thaliana, UniProt Q9STX3 1-151, looked up)
# chain: B2 chain with E138K
# notes: AtSLY1 of A. thaliana with E138K; cloned into pMAL-c2X; also called MBP-tagged Atsly1^gar2-1; source: E. coli BL21, purified (amylose resin)
# What was measured:
# [1] = biological target: Marchantia polymorpha MpDELLA (yeast prey fusion); assay: yeast 2-hybrid; conditions: parent: est. 180; read off a plot
# [2] = biological target: A. thaliana GAI (yeast prey fusion) (UniProt Q9LQT8); assay: yeast 2-hybrid; conditions: parent: est. 37; read off a plot
# His-tagged GAI [3] = biological target: T1, His-tagged GAI; assay: pull-down; 5 μg His-GAI held on Ni-NTA agarose, 5 μg MBP-SLY1/sly1 added with an equal amount of GST-GID1C and 0.1 mM GA3, 1 h at 4 °C, immunoblot with anti-His, anti-MBP and anti-GST; conditions: both partners purified
# His-tagged GAI [4] = biological target: T1, His-tagged GAI; assay: pull-down; 5 μg His-GAI/gai held on Ni-NTA agarose, 5 μg MBP-SLY1/sly1 added, 1 h at 4 °C, five washes, immunoblot with anti-His and anti-MBP; conditions: both partners purified
response (β-galactosidase units) [1],binding result (His-tagged GAI [4]),further results,Molecule
130,–,–,Marchantia polymorpha MpSLY1 (yeast bait fusion) H147K
50,–,–,Marchantia polymorpha MpSLY1 (yeast bait fusion) R118P
100,–,–,Marchantia polymorpha MpSLY1 (yeast bait fusion) S149T
–,–,response (β-galactosidase units) [2]: 17,Marchantia polymorpha MpSLY1 (yeast bait fusion) Y108F
–,–,binding result (His-tagged GAI [3]): binds,B1
–,binds,–,B2
–,binds,–,B3
–,binds,–,B4
